What all share (assay): peptide or protein array; SH2/PTB proteins spotted on aldehyde slides, rhodamine peptide titrated in buffer B (20 mM HEPES, 100 mM KCl, 0.1% Tween-20, 5 mM DTT, pH 7.8), 1 h at room temperature; replicate assays
Common to all, as to conditions: both partners purified

The target in one test is T1, CRK SH2 domain (human, UniProt P46108 13-118).
T1 construct: CRK, human; source: bacterial expression, purified

For test [1], the target named is T2, PTPN11 tandem SH2 domains (human).
T2 construct: PTPN11, human; also called PTPN11-NC; source: bacterial expression, purified
T2 sequence (Q06124 whole entry, looked up): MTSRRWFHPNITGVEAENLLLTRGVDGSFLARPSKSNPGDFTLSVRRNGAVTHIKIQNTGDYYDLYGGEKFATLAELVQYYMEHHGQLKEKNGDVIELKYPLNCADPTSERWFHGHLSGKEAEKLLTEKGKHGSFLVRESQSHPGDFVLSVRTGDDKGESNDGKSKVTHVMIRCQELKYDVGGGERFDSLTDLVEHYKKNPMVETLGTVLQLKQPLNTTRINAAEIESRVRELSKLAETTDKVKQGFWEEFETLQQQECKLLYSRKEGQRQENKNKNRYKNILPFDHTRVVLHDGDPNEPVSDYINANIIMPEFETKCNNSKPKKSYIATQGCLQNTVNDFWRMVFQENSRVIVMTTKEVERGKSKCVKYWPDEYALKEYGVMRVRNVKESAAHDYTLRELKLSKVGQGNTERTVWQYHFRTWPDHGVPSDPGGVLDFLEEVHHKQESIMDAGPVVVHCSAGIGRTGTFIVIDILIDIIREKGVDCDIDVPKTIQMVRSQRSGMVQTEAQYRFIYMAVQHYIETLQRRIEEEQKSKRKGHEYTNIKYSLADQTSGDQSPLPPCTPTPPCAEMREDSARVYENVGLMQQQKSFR

The target of test [2] is T3, PLCG2 N-terminal SH2 domain (human).
T3 construct: PLCG2, human; source: bacterial expression, purified
T3 sequence (P16885 whole entry, looked up): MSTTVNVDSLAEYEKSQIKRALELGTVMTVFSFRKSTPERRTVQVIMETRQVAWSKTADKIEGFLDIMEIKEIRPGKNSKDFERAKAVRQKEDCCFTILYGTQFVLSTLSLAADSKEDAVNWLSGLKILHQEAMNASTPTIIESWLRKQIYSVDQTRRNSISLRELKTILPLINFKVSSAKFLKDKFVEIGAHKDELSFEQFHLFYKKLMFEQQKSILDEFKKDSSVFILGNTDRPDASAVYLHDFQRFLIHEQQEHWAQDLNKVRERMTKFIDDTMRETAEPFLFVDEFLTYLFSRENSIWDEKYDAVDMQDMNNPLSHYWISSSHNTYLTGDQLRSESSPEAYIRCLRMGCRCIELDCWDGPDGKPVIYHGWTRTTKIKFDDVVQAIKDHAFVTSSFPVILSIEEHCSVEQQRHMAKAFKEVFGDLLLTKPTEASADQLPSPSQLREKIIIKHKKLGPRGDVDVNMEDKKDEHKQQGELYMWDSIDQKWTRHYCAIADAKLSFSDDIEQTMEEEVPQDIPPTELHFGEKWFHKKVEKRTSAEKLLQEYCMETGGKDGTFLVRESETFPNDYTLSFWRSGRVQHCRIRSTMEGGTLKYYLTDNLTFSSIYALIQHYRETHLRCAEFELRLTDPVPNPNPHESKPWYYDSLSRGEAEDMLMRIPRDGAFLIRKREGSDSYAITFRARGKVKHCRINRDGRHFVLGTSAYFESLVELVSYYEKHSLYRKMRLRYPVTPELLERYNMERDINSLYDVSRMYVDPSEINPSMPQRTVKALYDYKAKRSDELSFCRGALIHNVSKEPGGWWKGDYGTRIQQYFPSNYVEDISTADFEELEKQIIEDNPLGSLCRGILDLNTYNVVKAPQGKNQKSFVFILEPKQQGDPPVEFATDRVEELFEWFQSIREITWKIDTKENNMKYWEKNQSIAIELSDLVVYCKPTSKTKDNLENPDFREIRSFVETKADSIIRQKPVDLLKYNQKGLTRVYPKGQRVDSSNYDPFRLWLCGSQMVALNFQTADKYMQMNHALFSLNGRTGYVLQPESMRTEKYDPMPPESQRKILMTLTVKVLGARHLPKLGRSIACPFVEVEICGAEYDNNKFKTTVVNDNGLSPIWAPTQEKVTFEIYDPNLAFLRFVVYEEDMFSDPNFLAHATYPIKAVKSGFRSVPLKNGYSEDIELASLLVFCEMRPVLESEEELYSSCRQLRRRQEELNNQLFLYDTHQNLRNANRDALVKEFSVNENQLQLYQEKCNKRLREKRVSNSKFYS

A further test addresses T4, DAPP1 SH2 domain (human, UniProt Q9UN19 35-129).
T4 construct: DAPP1, human; source: bacterial expression, purified
T4 sequence (looked up): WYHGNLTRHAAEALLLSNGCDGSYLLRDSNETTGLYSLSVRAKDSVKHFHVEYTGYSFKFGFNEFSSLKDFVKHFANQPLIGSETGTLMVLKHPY

Another test deals with T5, VAV1 SH2 domain (human, UniProt P15498 671-765).
T5 construct: VAV1, human; source: bacterial expression, purified
T5 sequence (looked up): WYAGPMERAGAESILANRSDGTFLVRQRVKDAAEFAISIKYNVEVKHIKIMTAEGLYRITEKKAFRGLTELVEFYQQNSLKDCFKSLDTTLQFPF

In another test the target is T6, MATK SH2 domain (human, UniProt P42679 122-211).
T6 construct: MATK, human; source: bacterial expression, purified
T6 sequence (looked up): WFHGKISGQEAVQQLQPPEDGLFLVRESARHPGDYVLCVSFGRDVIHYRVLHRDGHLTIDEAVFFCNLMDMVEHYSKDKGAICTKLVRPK

Results on 1 molecule are retold here after PMC3433420, “Comprehensive Binary Interaction Mapping of SH2 Domains via Fluorescence Polarization Reveals Novel Functional Diversification of ErbB Receptors” (PLoS ONE, 2012).

By Kd is commonly meant the equilibrium constant for the complex coming apart.

“And” between values parts separate entries of the source, which are not always exact repeats. Identical values can stand only once. Non-standard residues stand in square brackets, D forms with d. No end group written: not given here. pY = N[C@@H](Cc1ccc(OP(=O)(O)O)cc1)C(=O)O; Rhodamine = not defined here

T1 sequence (P46108 13-118): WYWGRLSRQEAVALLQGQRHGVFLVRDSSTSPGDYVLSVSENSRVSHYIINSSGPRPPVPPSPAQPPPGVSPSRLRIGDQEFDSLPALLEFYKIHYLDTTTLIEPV

In the case of Rhodamine-ETDG[pY]VAPLTCSD (reading uncertain) [ErbB2 pY1127 phosphopeptide, rhodamine-labelled, for protein microarrays], the Kd with CRK SH2 domain is 7710 nM; in test [1], 1150 nM and 1530 nM; in test [2], 4160 nM; in the test with DAPP1 SH2 domain, 2670 nM; in the test with VAV1 SH2 domain it was 186 nM and 91.6 nM; in the test with MATK SH2 domain it was 4400 nM.
